Experimental data taken from the supplement of paper PMC11246515.
± gives the standard deviation of the averaged measurements.

Assay: total protein half-life in vivo (active degradation + dilution); higher = more stable protein
[1] = E. coli NCM3722 delta-clpP delta-lon delta-hslV, growth: N-lim chemostat, doubling time 6 h
[2] = E. coli NCM3722 delta-clpP, growth: N-lim chemostat, doubling time 6 h
[3] = E. coli NCM3722 delta-hslV, growth: N-lim chemostat, doubling time 6 h
[4] = E. coli NCM3722 delta-lon, growth: N-lim chemostat, doubling time 6 h
[5] = E. coli NCM3722 delta-smpB, growth: N-lim chemostat, doubling time 6 h
[6] = wild type E. coli NCM3722, growth: C-lim chemostat, doubling time 3 h
[7] = wild type E. coli NCM3722, growth: C-lim chemostat, doubling time 6 h
[8] = wild type E. coli NCM3722, growth: C-lim chemostat, doubling time 12 h
[9] = wild type E. coli NCM3722, growth: N-lim chemostat, doubling time 6 h
[10] = wild type E. coli NCM3722, growth: N-lim chemostat, doubling time 12 h
[11] = wild type E. coli NCM3722, growth: P-lim chemostat, doubling time 6 h
[12] = wild type E. coli NCM3722, growth: P-lim chemostat, doubling time 12 h

Sequence	total protein half-life in vivo [1] [h]	total protein half-life in vivo [2] [h]	total protein half-life in vivo [3] [h]	total protein half-life in vivo [4] [h]	total protein half-life in vivo [5] [h]	total protein half-life in vivo [6] [h]	total protein half-life in vivo [7] [h]	total protein half-life in vivo [8] [h]	total protein half-life in vivo [9] [h]	total protein half-life in vivo [10] [h]	total protein half-life in vivo [11] [h]	total protein half-life in vivo [12] [h]
MLNQKIQNPNPDELMIEVDLCYELDPYELKLDEMIEAEPEPEMIEGLPASDALTPADRYLELFEHVQSAKIFPDSKTFPDCAPKMDPLDILIRYRKVRRHRDFDLRKFVENHFWLPEVYSSEYVSDPQNSLKEHIDQLWPVLTREPQDHIPWSSLLALPQSYIVPGGRFSETYYWDSYFTMLGLAESGREDLLKCMADNFAWMIENYGHIPNGNRTYYLSRSQPPVFALMVELFEEDGVRGARRYLDHLKMEYAFWMDGAESLIPNQAYRHVVRMPDGSLLNRYWDDRDTPRDESWLEDVETAKHSGRPPNEVYRDLRAGAASGWDYSSRWLRDTGRLASIRTTQFIPIDLNAFLFKLESAIANISALKGEKETEALFRQKASARRDAVNRYLWDDENGIYRDYDWRREQLALFSAAAIVPLYVGMANHEQADRLANAVRSRLLTPGGILASEYETGEQWDKPNGWAPLQWMAIQGFKMYGDDLLGDEIARSWLKTVNQFYLEQHKLIEKYHIADGVPREGGGGEYPLQDGFGWTNGVVRRLIGLYGEP	5.33 ± 0.21	3.703 ± 0.019	2.44 ± 0.17	2.97 ± 0.09	2.61 ± 0.21	1.15	2.95	3.87 ± 0.14	2.47 ± 0.1	3.37 ± 0.04	2.42 ± 0.43	4.75 ± 0.37
MMVTVVSNYCQLSQTQLSQTFAEKFTVTEELLQSLKKTALSGDEESIELLHNIALGYDKFGKEAEDILYHIVRTPTNETLSIIRLIKNACLKLYNLAHIATNSPLKSHDSDDLLFKKLFSPSKLMTIIGDEIPLISEKQSLSKVLLNDENNELSDGTNFWDKNRQLTTDEIACYLQKIAANAKNTQVNYPTGLYVPYSTRTHLEDALNENIKSDPSWPNEVQLFPINTGGHWILVSLQKIVNKKNNKLQIKCVIFNSLRALGYDKENSLKRVINSFNSELMGEMSNNNIKVHLNEPEIIFLHADLQQYLSQSCGAFVCMAAQEVIEQRESNSDSAPYTLLKNHADRFKKYSAEEQYEIDFQHRLANRNCYLDKYGDANINHYYRNLEIKHSQPKNRASGKRVS	6.83	–	–	–	–	–	–	–	–	–	–	–
MLDQVCQLARNAGDAIMQVYDGTKPMDVVSKADNSPVTAADIAAHTVIMDGLRTLTPDVPVLSEEDPPGWEVRQHWQRYWLVDPLDGTKEFIKRNGEFTVNIALIDHGKPILGVVYAPVMNVMYSAAEGKAWKEECGVRKQIQVRDARPPLVVISRSHADAELKEYLQQLGEHQTTSIGSSLKFCLVAEGQAQLYPRFGPTNIWDTAAGHAVAAAAGAHVHDWQGKPLDYTPRESFLNPGFRVSIY	4.77 ± 0.078	4.77 ± 0.62	4.6 ± 0.36	5.51 ± 1.2	4.29 ± 0.011	2.97 ± 0.26	5.69 ± 0.6	10.58 ± 0.1	4.76 ± 0.5	7.931 ± 0.051	6.3 ± 0.95	10.7 ± 0.4
MLKKFRGMFSNDLSIDLGTANTLIYVKGQGIVLNEPSVVAIRQDRAGSPKSVAAVGHDAKQMLGRTPGNIAAIRPMKDGVIADFFVTEKMLQHFIKQVHSNSFMRPSPRVLVCVPVGATQVERRAIRESAQGAGAREVFLIEEPMAAAIGAGLPVSEATGSMVVDIGGGTTEVAVISLNGVVYSSSVRIGGDRFDEAIINYVRRNYGSLIGEATAERIKHEIGSAYPGDEVREIEVRGRNLAEGVPRGFTLNSNEILEALQEPLTGIVSAVMVALEQCPPELASDISERGMVLTGGGALLRNLDRLLMEETGIPVVVAEDPLTCVARGGGKALEMIDMHGGDLFSEE [P0A9X4]	–	–	6.55 ± 0.53	6.29 ± 0.99	5.69 ± 0.23	3.039 ± 0.01	6.72 ± 0.37	12.1 ± 0.77	6.13 ± 0.39	12.1 ± 0.8	5.94 ± 0.36	12.4 ± 0.42
MDKIHAMQLFIKVAELESFSRAADFFALPKGSVSRQIQALEHQLGTQLLQRTTRRVKLTPEGMTYYQRAKDVLSNLSELDGLFQQDATSISGKLRIDIPPGIAKSLLLPRLSEFLYLHPGIELELSSHDRPVDILHDGFDCVIRTGALPEDGVIARPLGKLTMVNCASPHYLTRFGYPQSPDDLTSHAIVRYTPHLGVHPLGFEVASVNGVQWFKSGGMLTVNSSENYLTAGLAGLGIIQIPRIAVREALRAGRLIEVLPGYRAEPLSLSLVYPQRRELSRRVNLFMQWLAGVMKEYLD	6.09 ± 0.38	4.8 ± 0.34	2.08	3.35 ± 0.51	2.76	2.32	3.43 ± 0.34	7.24 ± 3.2	–	–	–	–
